{"source": "the nanobody polyreactivity screen of Harvey et al. (2022)", "data": [{"assay": "yeast display, Sf9 membrane polyspecificity reagent, FACS + sequencing; frameworks hold sequencing errors", "method_in_brief": "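Galactose-induced (36–48 hours) yeast carrying a synthetic nanobody display library were exposed to 10% biotinylated, detergent-solubilized Sf9 membrane reagent at 4 °C for 1 hour. FACS followed streptavidin microbead enrichment, using low and high (top ~1%) gates for expression (anti-HA) and reagent binding (streptavidin). Colony PCR, MiSeq 2 × 250 sequencing and CDR-length filtering followed. Labels for polyreactivity reflect the gate of origin.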", "values": [{"sequence": "QVQLVESGGGLVQAGGSLRLSCAASGSIFAYYTMGWYRQAPGNERELVAALSRSGGSTNYADSVKGRFTISRDNAKNTVYLQMISLKPEDTAVYYCAVRRYSRRLFGYYYWGQGTQVTVSS", "polyreactivity (PSR sort gate)": "high polyreactivity"}, {"sequence": "QVQLVESGGGLVQAGGSLRLSCAASGSIFCRNAMGWYRQAPGKERELVAAITSGGTTNYADSVKGRFTISRDNAKNSVYLQMNSLKPEDTAVYYCATRASYLRRYDHPHSDVDYWGQGTQVTVSS", "polyreactivity (PSR sort gate)": "low polyreactivity"}, {"sequence": "QVQLVESGGGLVQAGGSLRLSCAASGSIFDANAMGCYRQAPGKERELVAAINWTGGSTYYADSVKGRFTISRDNAKNTVYLQMNSLKPEDTAVYYCAAEWWYPYNPDIYYYWGQGIQVTVSS", "polyreactivity (PSR sort gate)": "high polyreactivity"}, {"sequence": "QVQLVESGGGLVQAGGSLRLSCAASGSIFDANAMGWYRQAPGKEREVVAAISYRGGRTYYADSVKGRFTISRDNAKNTVYLQMNSLKPEDTAVYYCNAGISHRSDNGIDGYYWGQGTQVTVSS", "polyreactivity (PSR sort gate)": "high polyreactivity"}, {"sequence": "QVQLVESGGGLVQAGGSLRLSCAASGSIFDAYAMGWYRQAPGKERELVAAISSGGNTNYADSVKGRFTISRDNAKNTVDLQMNSLKPEDTAVYYCAADFTHPDGLPGFDYWGQGTQVTVSS", "polyreactivity (PSR sort gate)": "low polyreactivity"}, {"sequence": "QVQLVESGGGLVQAGGSLRLSCAASGSIFDDYAMGWYRQAPGKERELVAAISSSGTSTYYADSVKGRFTISRDNAKNTVYLQMNSLKPEDTAVYYCAARSAILKSGYLMDYWGQGTQVTVSS", "polyreactivity (PSR sort gate)": "low polyreactivity"}, {"sequence": "QVQLVESGGGLVQAGGSLRLSCAASGSIFDFNALGWYRQAPGKERELVAAITYSGGRTYYADSVKGRFTISRDNGKYTVYLQMNSMKPEDTAVFYCAVNSFSGHGDYWGQGTQVTVSS", "polyreactivity (PSR sort gate)": "low polyreactivity"}, {"sequence": "QVQLVESGGGLVQAGGSLRLSCAASGSIFDGNAMGWYRQAPGKERELVAAISRRGGSTYYADSVKGRFTISRDKAKNTVYLQMNSLKPEDTAVYYCNAYLSYFDGNYWGQGTQVTVSS", "polyreactivity (PSR sort gate)": "high polyreactivity"}, {"sequence": "QVQLVESGGGLVQAGGSLRLSCAASGSIFDINAMGWYRQAPWKERELVAAISLSAGSTYYADSVKGRFTISRDNSKNTVYFQMNSLYPDDAAVFYCNADGWYGYWGQVTQVTVSS", "polyreactivity (PSR sort gate)": "low polyreactivity"}, {"sequence": "QVQLVESGGGLVQAGGSLRLSCAASGSIFDIYAMGWYRPAPGKERELVAAISLSAGSTYYADSVKGRFTISRDNAKNTVYLQMNSLKPEDTAVYYCNADGWYGYWGQGTQVTVSS", "polyreactivity (PSR sort gate)": "low polyreactivity"}, {"sequence": "QVQLVESGGGLVQAGGSLRLSCAASGSIFDIYAMGWYRQAPGKERELVATITWDGVSTYYADSVKGRFTISRDNAKNTVYLQMNSLKPEDTAVYYCNVVVRYPSAYDYWGQGTQVTVSS", "polyreactivity (PSR sort gate)": "high polyreactivity"}, {"sequence": "QVQLVESGGGLVQAGGSLRLSCAASGSIFDIYGMGWYRKAPGKERELVASISGGAGSTNYADSVKGRFTISRDNAKNTVYLQMNSLKPEDTAVYYCAAEVYVPDYFQHKFDVEYEYWGQGTQVTVSS", "polyreactivity (PSR sort gate)": "low polyreactivity"}, {"sequence": "QVQLVESGGGLVQAGGSLRLSCAASGSIFDLNAMGWYRQAPGKERELGAAISSGGGTYYADSVKGRFTISRDNAKNTVYLQMNSLKPEDTAVYYCNRVTSWTYNYWGQGTQVTVSS", "polyreactivity (PSR sort gate)": "high polyreactivity"}, {"sequence": "QVQLVESGGGLVQAGGSLRLSCAASGSIFDLYAMGWYRQAPGKERELVAAINWTGGSTYYADSVKGRFTISRDNAKNTVYLQMNSLKPEDTAVYYCAASYYYGTEHYDYWGQGTQVTVSS", "polyreactivity (PSR sort gate)": "low polyreactivity"}, {"sequence": "QVQLVESGGGLVQAGGSLRLSCAASGSIFDNAMGWYRQAPGKERELVADITNNGGSTYYADSVKGRFTISRDNAKNTVYLQMNSLKPEDTAVYYCAKRRNYWFSFDYWGQGTQVTVSS", "polyreactivity (PSR sort gate)": "low polyreactivity"}, {"sequence": "QVQLVESGGGLVQAGGSLRLSCAASGSIFDNAMGWYRQAPGKERELVASIDQSGGSTYYADSVKGRFTISRDNAKNTVYLQMNSLKPEDTAVYYCAADSFTGYPYEMDYWGQGTQVTVSS", "polyreactivity (PSR sort gate)": "low polyreactivity"}, {"sequence": "QVQLVESGGGLVQAGGSLRLSCAASGSIFDNNAMGWYRQAPGKERELVAAIRRTSTTYYADSVKGRFTISRDNAKNTVYLQMNSLKPEDTAVYYCAATYGSGYWYPRYYYWGQGTQVTVSS", "polyreactivity (PSR sort gate)": "high polyreactivity"}, {"sequence": "QVQLVESGGGLVQAGGSLRLSCAASGSIFDPYAMGWYRQAPGKERELVAAIDYSGGSTYYADSVKGRFTISRDNAKNTVYLQMNSLKPEDTAVSYCAADYFWLYYSEYGYWGQGTQVTVSS", "polyreactivity (PSR sort gate)": "low polyreactivity"}, {"sequence": "QVQLVESGGGLVQAGGSLRLSCAASGSIFDPYAMGWYRQAPGKERELVAAIRWGGGTTYYADSVKGRFTISRDNSKITVSLQMNSLKPEDTAVYYCAASWDWYDYWYDYWGQGTQVTVSS", "polyreactivity (PSR sort gate)": "high polyreactivity"}, {"sequence": "QVQLVESGGGLVQAGGSLRLSCAASGSIFDPYAMGWYRQAPGKERELVAAISGSGGSTYYADSVKGRFTISRDNAKNTVYLQMNSLKPEDTALYFCAAADAWWGRRYKYYHWGQGPQVTVSS", "polyreactivity (PSR sort gate)": "low polyreactivity"}, {"sequence": "QVQLVESGGGLVQAGGSLRLSCAASGSIFDPYAMGWYRQAPGKERELVAAITSDGSTNYADSVKGRFTISRDNAKNTVYLQMNSLKPEDTAVYYCAARYNLGEYDYWGQGTQVTVSS", "polyreactivity (PSR sort gate)": "low polyreactivity"}, {"sequence": "QVQLVESGGGLVQAGGSLRLSCAASGSIFDPYAMGWYRQAPGKERELVAGISFSGGRTYYADSVKGRFTISRDNAKNTVYLQMNSLKPEDTAVYYCNKLLTQGAYPYYYWGQGTQVTVSS", "polyreactivity (PSR sort gate)": "high polyreactivity"}, {"sequence": "QVQLVESGGGLVQAGGSLRLSCAASGSIFDQYAMGWYRQAPGKERELVAGISSNGGTSTYYADSVKGRFTISRDNAKNTVYLQMNSLKAEDTAVYYCAAQSHYVDQYGYWGQGTQVTVSS", "polyreactivity (PSR sort gate)": "low polyreactivity"}, {"sequence": "QVQLVESGGGLVQAGGSLRLSCAASGSIFDRNAMGWYRQAPGKERELVAAINSNAGITYYADSVKGRFTISRDNAKITVYLQMNSLKPEDTAVYYCAADIRVVYREDHWGQGTQVTVSS", "polyreactivity (PSR sort gate)": "low polyreactivity"}, {"sequence": "QVQLVESGGGLVQAGGSLRLSCAASGSIFDRNAMGWYRQAPGKERELVATITWSGVSTYYADSVKGRFTISRDNAKNTVYLQMKSLKPEDTAVYYCYADYSYRHWYDPGQYGQAMGYWGQGTKVTVSS", "polyreactivity (PSR sort gate)": "low polyreactivity"}, {"sequence": "QVQLVESGGGLVQAGGSLRLSCAASGSIFDRNAMGWYRQAPGKERELVSAISRGGRTYYADSVKGRFTISRDNAKNTVYLQMNSLKPEVTAVYYCAAGYPSAWAYTTDDYWGQGTQVTVSS", "polyreactivity (PSR sort gate)": "low polyreactivity"}, {"sequence": "QVQLVESGGGLVQAGGSLRLSCAASGSIFDRYVMGWYRPAPGKERELVAAISKSGGNTYYADSVKGRFTISRDYEKNTVYLQMNSLKPEDTAVYYCNARSGRYYLGYGYWGQGTQVTVSS", "polyreactivity (PSR sort gate)": "high polyreactivity"}, {"sequence": "QVQLVESGGGLVQAGGSLRLSCAASGSIFDSNAMGWYRQAPGKERELVAAINRSDASTYYADSVKGRFTISRDNAKNTDYLQMTSPQPEGTAVYYCGVEVYVYNVHIYDYWGQGTQVTVSS", "polyreactivity (PSR sort gate)": "low polyreactivity"}, {"sequence": "QVQLVESGGGLVQAGGSLRLSCAASGSIFDSNAMGWYRQAPGKERELVAAMDDAGATTYYADSVQGRFTISRDNAKNTVYLQMNSLKPEDTAVYYCAAETYTGSLAYYRVYYYWGQGTQVTVSS", "polyreactivity (PSR sort gate)": "low polyreactivity"}, {"sequence": "QVQLVESGGGLVQAGGSLRLSCAASGSIFDSNAMGWYRQAPGKERELVATISSVGSTNYADSVKGRFTISRDNAKNTVYLQMNSLKPEDTAVYYCARVVDAQGYYSAASGGYYWGQGTQVTVSS", "polyreactivity (PSR sort gate)": "low polyreactivity"}, {"sequence": "QVQLVESGGGLVQAGGSLRLSCAASGSIFDSNTRGWYRQAPGKERELVAAINWSGGRTYYADSVKGRFTISRDNPNNTVYLQMNSLKPEDTAVYYCARPSYYATYYPQPFGYNYWGQGTQVTVSS", "polyreactivity (PSR sort gate)": "high polyreactivity"}, {"sequence": "QVQLVESGGGLVQAGGSLRLSCAASGSIFDSYAMGWSRQAPGKERELVAAISSGGSTNYADSVKGRFTISRDNEKNTVILQMYSLKTEDTAVYFCAADGSLDAYNYWGQGTQVSVSS", "polyreactivity (PSR sort gate)": "low polyreactivity"}, {"sequence": "QVQLVESGGGLVQAGGSLRLSCAASGSIFDSYAMGWYRQAPGKERELVAAISRIGGTTYYADSVKGRFTISRDNAKNTVYLQMNTLKPEDTAVYYCAAGPLLPRYSQYGYWGLGTQVTVSS", "polyreactivity (PSR sort gate)": "low polyreactivity"}, {"sequence": "QVQLVESGGGLVQAGGSLRLSCAASGSIFDSYAMGWYRQAPGKERELVAAISRSGSRTYYADSVKGRFTISRDNAKNTVYLQMNSLKPEDTAVYYCAAGLSGYSRKIYYWGQGTQVTVSS", "polyreactivity (PSR sort gate)": "high polyreactivity"}, {"sequence": "QVQLVESGGGLVQAGGSLRLSCAASGSIFDSYVMGWYRHAPGKERELVAAITYSGGSTYADSVKGRFTISRDNAQNTVDLQMNSLKPEDTAVYYCAAASSFYLYLLEDYWGQGTQVTVSS", "polyreactivity (PSR sort gate)": "low polyreactivity"}, {"sequence": "QVQLVESGGGLVQAGGSLRLSCAASGSIFDTNAMGWYRQAPGKERELVAAISFSGVRTYYADSVKGRFTISRDNAKNTVYLLMNSLKPEDTAVYYCNRLRISPGWRYNYWGQGTQVTVSS", "polyreactivity (PSR sort gate)": "high polyreactivity"}, {"sequence": "QVQLVESGGGLVQAGGSLRLSCAASGSIFDVNAMGWYRPAPGKERELVAAISDSGGSTYYADSVKGRFTISRDNAKNTVYLQMNSLQPQDTAVYSCNADWSWYNYYDFDYWGQGTQVTVSS", "polyreactivity (PSR sort gate)": "low polyreactivity"}, {"sequence": "QVQLVESGGGLVQAGGSLRLSCAASGSIFDVNAMGWYRQAPGKEREFVASITWSGGSTYYADSVKGRFTISRDNAKNTVYLQMNSLKPEDTAVYYCAARPVWVSGYLQYVYCGQGTQVTVSS", "polyreactivity (PSR sort gate)": "low polyreactivity"}, {"sequence": "QVQLVESGGGLVQAGGSLRLSCAASGSIFDVNAMGWYRQAPGKERELVAAITWSGGITYYADSVKGRFTISRDNAKNTVYLQMNSLKPEDTAVYYCNVYVTAGEEDEYWGQGTQVTVSS", "polyreactivity (PSR sort gate)": "low polyreactivity"}, {"sequence": "QVQLVESGGGLVQAGGSLRLSCAASGSIFDVYAMGWYRQAPGKERELVAAIRTRGGSTYYADSVKGRFTISRDNAKNTVYLQMNSLKPEDTAVYYCAAYPLVSWGRHGTKGDYWGQGTQVTVSS", "polyreactivity (PSR sort gate)": "low polyreactivity"}, {"sequence": "QVQLVESGGGLVQAGGSLRLSCAASGSIFDVYAMGWYRQAPGKERELVAAITGGGSTYYADSVKGRFTISRDNAKNTVYLQMNSLKPEDTAVYYCNADRRRRSGGFAGWHFQRNDYWGQGTQVTVSS", "polyreactivity (PSR sort gate)": "low polyreactivity"}, {"sequence": "QVQLVESGGGLVQAGGSLRLSCAASGSIFDVYTMGWYRQAPGKERELVAAISWSGGSTFYADSVKGRFTISRDNAKNTVYLQMNSLKPEDTAVYYCAARSYWRQYGRYGSWGQGTQVTVSS", "polyreactivity (PSR sort gate)": "high polyreactivity"}, {"sequence": "QVQLVESGGGLVQAGGSLRLSCAASGSIFDVYTMGWYRQAPGKVRELVAAINTGGGSTYYADSVMGRFTISRDNAKNTVYLEMNSLKPEDTAVYYCAASVYHYGPLYYWGEGTQVTVSS", "polyreactivity (PSR sort gate)": "low polyreactivity"}]}]}
